Drawing on US10301203B2, “Chloroperoxidase-catalyzed degradation of pharmaceutical pollutants in wastewater” (THE FLORIDA INTERNATIONAL UNIVERSITY BOARD OF TRUSTEES, priority 2017, dated 2019), this text covers halogenation activity, aromatic hydroxylation activity and classic peroxidase activity for 1 molecule.

Common to all, as to assay type: biochemical
Conditions in all cases: CPO Rz=1.03

A short description of data set [1]: Standard MCD assay, halogenation activity of CPO. As for the experimental part:
(§1) The halogenation activity of CPO used in this study was 4232 U·mL^−1 based on the standard MCD assay (Hager et al., 1966). The aromatic hydroxylation activity (3563 U·mL-1) of the enzyme was determined by monitoring the hydroxylation of naphthalene into I-naphthol (Kluge et al., 2007). The classic peroxidase activity of the enzyme determined using ABTS as the substrate was 3071 U·mL^−1 (Manoj et al., 2008).

The nature of data set [2]: Aromatic hydroxylation activity of CPO, naphthalene hydroxylation. As for the experimental part:
as §1

Data set [3] is described as follows: Classic peroxidase activity of CPO, ABTS substrate. As for the experimental part:
as §1

B1: CPO: heme-containing glycoprotein secreted by the fungus Caldariomyces fumago (protein, UniProt P04963 21-319, looked up)
Chloroperoxidase: QEPGSGIGYPYDNNTLPYVAPGPTDSRAPCPALNALANHGYIPHDGRAISRETLQNAFLNHMGIANSVIELALTNAFVVCEYVTGSDCGDSLVNLTLLAEPHAFEHDHSFSRKDYKQGVANSNDFIDNRNFDAETFQTSLDVVAGKTHFDYADMNEIRLQRESLSNELDFPGWFTESKPIQNVESGFIFALVSDFNLPDNDENPLVRIDWWKYWFTNESFPYHLGWHPPSPAREIEFVTSASSAVLAASVTSTPSSLPSGAIGPGAEAVPLSFASTMTPFLLATNAPYYAQDPTLGPND
Molecule B1 had a halogenation activity in data set [1] of 4232 U·mL^−1. The molecule further showed an aromatic hydroxylation activity in data set [2] of 3563 U·mL-1. Further, the classic peroxidase activity in data set [3] is listed as 3071 U·mL^−1.
